# Assay results published in patent US20240293565A1 (BEIJING SINOTAU BIO PHARMACEUTICALS TECHNOLOGY, published 2024).
# B1: ch3F8-MMAE (antibody, V domains shown)
# VH: DVQLQESGPGLVKPSQSLSLTCSVTGYSITSAYYWNWIRQFPGDKLEWMGYISYDGRNNFNPSLKNRISITRDTSKNQFFLKLNSVTSGDTATYYCARDGDYDYFDYWGQGTTLTVSS
# VL: DIQMTQTTSSLSASLGDRVTISCRASQDISNYLNWYQQKPDGTFKLLIYYTSILHSGVPSRFSGSGSGTDYSLTISNLEQEDIATYFCQQGDTLPPTFGAGTKLELK
# modifications: MC-VC-MMAE conjugated to cysteine residues of the antibody after reduction of disulfide bonds (positions not stated), DAR around 3.8
# B2: chimeric 3F8 (antibody, human IgG1, V domains shown)
# VH: B1 VH
# VL: B1 VL
# notes: also called ch3F8; Ch3F8
# Columns and labels:
# [1] = target: T1, human HER3 on the cell surface (human, UniProt P21860 20-1342); assay: cell-based or functional assay
# T1 sequence (P21860 20-1342): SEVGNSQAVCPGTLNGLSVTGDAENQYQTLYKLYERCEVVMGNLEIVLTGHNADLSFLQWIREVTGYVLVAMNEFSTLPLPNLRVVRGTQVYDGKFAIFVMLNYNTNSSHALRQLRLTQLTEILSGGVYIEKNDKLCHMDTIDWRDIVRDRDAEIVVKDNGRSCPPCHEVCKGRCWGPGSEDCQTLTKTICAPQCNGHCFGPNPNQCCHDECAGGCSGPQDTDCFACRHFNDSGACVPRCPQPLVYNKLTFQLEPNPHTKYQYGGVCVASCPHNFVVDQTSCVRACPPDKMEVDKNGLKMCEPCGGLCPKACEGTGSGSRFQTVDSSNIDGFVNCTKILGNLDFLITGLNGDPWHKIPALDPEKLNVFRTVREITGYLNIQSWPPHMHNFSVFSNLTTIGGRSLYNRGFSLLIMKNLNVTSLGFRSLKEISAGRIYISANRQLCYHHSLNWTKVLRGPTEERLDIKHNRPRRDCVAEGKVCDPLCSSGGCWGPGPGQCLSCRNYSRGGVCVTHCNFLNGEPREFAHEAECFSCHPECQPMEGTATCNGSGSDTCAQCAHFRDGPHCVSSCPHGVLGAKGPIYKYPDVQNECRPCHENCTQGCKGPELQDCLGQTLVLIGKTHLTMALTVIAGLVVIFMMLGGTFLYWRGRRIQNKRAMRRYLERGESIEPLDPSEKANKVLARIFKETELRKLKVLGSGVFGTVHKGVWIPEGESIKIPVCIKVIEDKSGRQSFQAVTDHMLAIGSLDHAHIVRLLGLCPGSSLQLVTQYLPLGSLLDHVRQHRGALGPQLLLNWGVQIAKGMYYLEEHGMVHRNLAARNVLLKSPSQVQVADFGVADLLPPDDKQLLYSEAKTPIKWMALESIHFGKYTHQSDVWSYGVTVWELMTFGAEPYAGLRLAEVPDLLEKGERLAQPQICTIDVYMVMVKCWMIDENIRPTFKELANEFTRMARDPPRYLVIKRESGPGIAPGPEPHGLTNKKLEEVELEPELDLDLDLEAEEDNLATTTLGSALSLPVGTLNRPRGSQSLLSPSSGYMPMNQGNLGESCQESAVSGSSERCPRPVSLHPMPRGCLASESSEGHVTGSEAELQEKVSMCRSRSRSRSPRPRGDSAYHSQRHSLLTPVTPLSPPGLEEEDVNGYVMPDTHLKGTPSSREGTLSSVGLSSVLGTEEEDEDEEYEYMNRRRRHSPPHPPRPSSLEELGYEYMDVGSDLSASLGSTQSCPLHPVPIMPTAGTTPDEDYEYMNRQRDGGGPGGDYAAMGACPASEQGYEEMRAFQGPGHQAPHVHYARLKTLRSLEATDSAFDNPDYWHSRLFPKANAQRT
# [2] = target: T1, human HER3 on the cell surface; assay: flow cytometry on SP2/0-HER3 cells
# Experimental: ch3F8-MMAE maintains the similar binding affinity to ch3F8. ch3F8-MMAE binding affinity with HER3 was measured with SP2/0-HER3 by FACS.
Binder,"cytotoxicity IC50 (nM), ATPlite, 7901 cells [1] [nM]","cytotoxicity IC50 (nM), ATPlite, HT-29 cells [1] [nM]","cytotoxicity IC50 (nM), ATPlite, MCF-7 cells [1] [nM]","cytotoxicity IC50 (nM), ATPlite, MDA-MB-453 cells [1] [nM]","cytotoxicity IC50 (nM), ATPlite, N87 cells [1] [nM]","cytotoxicity IC50 (nM), ATPlite, SK-BR-3 cells [1] [nM]","cytotoxicity IC50 (nM), ATPlite, SP2/0-HER3 cells [1] [nM]",EC50 (read off the curve) [2] [ng/mL]
B1,5.74,4.67,9.49,0.0401,1.91,0.159,0.486,–
B2,–,–,–,–,–,–,–,~80
